Biological target: AlexaFluor594-tagged pre-formed fibrils (PFFs) of alpha-synuclein (UniProt P37840)
Experiment: two-colour coincidence detection (TCCD), single-molecule fluorescence; AF594-labelled α-SYN fibrils added to LTE expressing the N-GFP LB protein; fibrils at 1 µM (monomer-equivalent); stationary plate; 300 s traces, quadruplicate; Association Quotient Q

GABARAPL1 (from UniProt Q9H0R8 1-117) (natural protein)
relative presence of GFP species in the aggregates (fraction bound to fibrils): 0.14

Source: publication PMC8460662
